Assay results published in US20060233832A1 (Rhein Biotech Gesellschaft Fur Neue Biotechnologische …, published 2006).

Target: Affinity-purified MHC class I molecules K^b with human β2m (mouse (H-2^b); human)

**Q.** For IVSPFIPL [K^b/S208-215-binding peptide 1 of HBsAgadw2 (IVSPFIPL)], which IC50 is on record?
**A.** The IC50 was 773 nM.
